This is an account of results in patent US20190062427A1.

Test [1] addresses Siglec-9-Fc (R&D Systems, catalog number 1139-SL-050) (human) (UniProt Q9Y336). Kind of test: blocking assay by flow cytometry on U937 cells (sialic acid ligands); same table: S9-Fc alone 156, secondary alone 37.6; panel headed 'Isotype does not block'.
The target in test [2] is human Siglec-9 expressed on human cells (human) (UniProt Q9Y336). The experiment in a line: flow cytometry on human primary monocytes, PE-conjugated secondary antibody only (no primary), background control.
For test [3] the target is unchanged. The experiment in a line: flow cytometry on human primary macrophages, PE-conjugated secondary antibody only (no primary), background control. For orientation: A flow cytometer gives signals particle by particle.
For test [4] the target is unchanged. The experiment in a line: flow cytometry on human primary dendritic cells, PE-conjugated secondary antibody only (no primary), background control.
The target is the same in test [5]. Kind of test: cell-based or functional assay.
The target is the same in test [6]. The experiment in a line: flow cytometry on human primary monocytes, isotype control, PE secondary.
Test [7] has the same target. Kind of test: flow cytometry on human primary macrophages, isotype control, PE secondary.
The target is the same in test [8]. Kind of test: flow cytometry on human primary dendritic cells, isotype control, PE secondary.

human Siglec-9 expressed on human cells (human), sequence (Q9Y336 18-463): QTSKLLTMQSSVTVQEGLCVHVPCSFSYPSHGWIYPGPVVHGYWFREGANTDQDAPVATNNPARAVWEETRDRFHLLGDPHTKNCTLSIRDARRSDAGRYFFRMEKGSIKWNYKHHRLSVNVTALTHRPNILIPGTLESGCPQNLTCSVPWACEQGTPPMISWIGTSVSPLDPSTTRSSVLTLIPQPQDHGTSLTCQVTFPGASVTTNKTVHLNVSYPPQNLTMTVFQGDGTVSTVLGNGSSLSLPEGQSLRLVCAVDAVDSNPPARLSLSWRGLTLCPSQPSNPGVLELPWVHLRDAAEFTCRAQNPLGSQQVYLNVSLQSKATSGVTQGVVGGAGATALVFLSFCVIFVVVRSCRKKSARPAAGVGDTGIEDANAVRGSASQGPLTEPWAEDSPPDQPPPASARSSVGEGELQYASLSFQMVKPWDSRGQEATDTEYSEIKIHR
Siglec-9-Fc (R&D Systems, catalog number 1139-SL-050) (human), sequence (Q9Y336 18-348 limits assumed): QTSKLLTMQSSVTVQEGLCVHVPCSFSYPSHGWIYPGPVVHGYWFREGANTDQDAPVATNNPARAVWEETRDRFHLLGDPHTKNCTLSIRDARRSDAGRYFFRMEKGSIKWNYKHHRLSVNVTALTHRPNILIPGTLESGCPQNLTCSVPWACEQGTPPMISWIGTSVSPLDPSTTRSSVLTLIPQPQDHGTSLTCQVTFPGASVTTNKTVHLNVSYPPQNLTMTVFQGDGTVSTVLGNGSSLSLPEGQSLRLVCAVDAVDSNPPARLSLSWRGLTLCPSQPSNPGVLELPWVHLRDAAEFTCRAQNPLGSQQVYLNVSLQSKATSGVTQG

With Isotype (antibody), the Mean : PE-A (Siglec-9-Fc bound to U937 cells in the presence of the mAb) in test [1] stood at 203.
In the case of PE-conjugated secondary antibody, the values for the % Positive in test [2], in test [3] and in test [4] were 2.6%, 3.58% and 7.05%, respectively. Also, the MFI stood at 105 in test [2], 153 in test [3] and 90.1 in test [4].
In the case of mIgG1 isotype control antibody, in test [5], the Percent Siglec-9 Surface Expression, DCs (% Siglec-9) is 96.5%; the Percent Siglec-9 Surface Expression, Macrophages (% Siglec-9) is 99.3%; the Percent Siglec-9 Surface Expression, Microglia (% Siglec-9) turned out to be 90.3%; the Percent Siglec-9 Surface Expression, Monocytes (% Siglec-9) was determined as 100%. The Percent Siglec-9 Surface Expression, THP-1 cells (% Siglec-9) in test [5] stood at 100%. Also, in test [6], the % Positive amounted to 2.6% and the MFI was 104. In test [7], this substance returned a % Positive of 3.01% and an MFI of 115. In test [8], this substance registered a % Positive of 12.3% and an MFI of 132.
In test [5], mIgG2a isotype control antibody yielded a Percent Siglec-9 Surface Expression, DCs (% Siglec-9) of 98.6%; a Percent Siglec-9 Surface Expression, Macrophages (% Siglec-9) of 97.8%; a Percent Siglec-9 Surface Expression, Microglia (% Siglec-9) of 91.2%; a Percent Siglec-9 Surface Expression, Monocytes (% Siglec-9) of 101%. For the same substance, the Percent Siglec-9 Surface Expression, THP-1 cells (% Siglec-9) in test [5] came to 95.9%. In test [6], this substance showed a % Positive of 3.5% and an MFI of 127. Also, in test [7], the % Positive was determined as 22.6% and the MFI was 164. In test [8], this substance yielded a % Positive of 8.45% and an MFI of 121.
For the substance mIgG2b isotype control antibody, in test [5], the Percent Siglec-9 Surface Expression, DCs (% Siglec-9) came out at 93.4%; the Percent Siglec-9 Surface Expression, Macrophages (% Siglec-9) worked out at 97.2%; the Percent Siglec-9 Surface Expression, Microglia (% Siglec-9) is 91.7%; the Percent Siglec-9 Surface Expression, Monocytes (% Siglec-9) amounted to 98.9%. In test [5], this substance displayed a Percent Siglec-9 Surface Expression, THP-1 cells (% Siglec-9) of 98%. In addition, in test [6], the % Positive was 4% and the MFI stood at 145. Moreover, in test [7], the % Positive was found to be 12.6% and the MFI was found to be 180. Moreover, in test [8], the % Positive was determined as 26.4% and the MFI turned out to be 319.
